# According to patent US20190029960A1, “Therapeutic Nanoparticles Having EGFR Ligands and Methods of Making and Using Same” (Pfizer Inc., priority 2016, published 2019):
# *1 amine or outer side, *2 acyl side, *3 side chain or, on linkers, in order; H or OH if unused. Where a SMILES comes first, the peptide text is derived from it. Bridges are numbered along the chain shown (N, C = ends). Where no end group is shown, it is not given here. Side-chain parts run from the residue outwards. [ ]: non-standard residue; d: D form. The star is where a group is joined. Trp(5-OMe) = COc1ccc2[nH]cc(C[C@H](N)C(=O)O)c2c1; DBCO = C1#Cc2ccccc2N(*)Cc2ccccc21; Igl = N[C@H](C(=O)O)C1Cc2ccccc2C1; PEG5 = NCCOCCOCCOCCOCCOCCC(=O)O; Suc = O=C(CCC(=O)[*:2])[*:1]; Orn = NCCC[C@H](N)C(=O)O; Pra = C#CC[C@H](N)C(=O)O; Dap = NC[C@H](N)C(=O)O; Acm = CC(=O)NC*
# Target: T1, Fc tagged recombinant human EGFR (rhEGFR-Fc) (Homo sapiens, UniProt P00533)
# T1 construct: purchased R&D Systems 344-ER-050
# Format: binding
# Conditions: not given
# Experimental: Surface plasmon resonance (SPR) binding studies were carried out on a Biacore T200 instrument (GE Healthcare). Approximately 10,000 RU of anti-Fc antibody (GE Healthcare, Cat #BR100839) was immobilized via amine coupling on each of flow cells 1 and 2 of a CM5 dextran-coated gold sensor chip (GE Healthcare, Cat #BR100530). […] The contact time and resulting amount of rhEGFR-Fc capture was varied based on the nature of the analyte, namely whether it was a peptide or nanoparticle.
# Peptide binding assays were carried out in 10 mM PBS buffer supplemented with 0.05% surfactant P20 and 5% DMSO by volume, at 25° C. Peptides were injected over the rhEGFR-Fc surface for 60 s, followed by dissociation (buffer injection) for 60 s and regeneration with a 10 s pulse of 3M MgCl2. A fresh rhEGFR-Fc surface was generated for each concentration of each peptide tested. Peptide binding data was analyzed by fitting to a 1:1 Langmuir kinetic model to obtain the on-rate (ka), off-rate (kd) and/or equilibrium binding constant (KD) of the interaction.
row,Compound,"binding of free peptide to EGFR by SPR, in words"
1,COc1ccc2[nH]cc(C[C@@H]3NC(=O)[C@H](C(C)C)NC(=O)[C@H](CCC(=O)O)NC(=O)[C@H](C4Cc5ccccc5C4)NC(=O)[C@H]([C@@H](C)O)NC(=O)[C@@H](NC(=O)[C@@H]4CCCN4C(=O)[C@H](CC(=O)O)NC(C)=O)CSSC[C@@H](C(=O)N[C@@H](CC(C)C)C(=O)N[C@@H](CCC(N)=O)C(=O)NCC(=O)NCC(=O)N[C@@H](CCCCNC(=O)CCOCCOCCOCCOCCOCCNC(=O)CCC(=O)N4Cc5ccccc5C#Cc5ccccc54)C(N)=O)NC(=O)[C@H](CCC(=O)O)NC(=O)[C@H](CCCNC(=N)N)NC(=O)CNC3=O)c2c1 [Peptide P2-102] (Ac-DPCT[Igl]EV[Trp(5-OMe)]GRECLQGGK([PEG5-Suc-DBCO])-NH2; disulfide 3-12),improved affinity relative to the parent peptide

# Same assay, conditions: Table 6, TGF fragments
row,Compound,KD
1,C#CC[C@H](NC(=O)CN)C(=O)NCC(=O)NCC(=O)N[C@@H](CC(N)=O)C(=O)N[C@@H](CC(=O)O)C(=O)N[C@@H](CS)C(=O)N1CCC[C@H]1C(=O)N[C@@H](CC(=O)O)C(=O)N[C@@H](CO)C(=O)N[C@@H](Cc1c[nH]cn1)C(=O)N[C@H](C(=O)N[C@@H](CCC(N)=O)C(=O)N[C@@H](Cc1ccccc1)C(N)=O)[C@@H](C)O [TGFf-12] (H-G[Pra]GGNDCPDSHTQF-NH2),No binding
2,C#CC[C@H](NC(=O)CN)C(=O)NCC(=O)NCC(=O)N[C@@H](CO)C(=O)N[C@@H](Cc1c[nH]cn1)C(=O)N[C@H](C(=O)N[C@@H](CCC(N)=O)C(=O)N[C@@H](Cc1ccccc1)C(=O)N[C@@H](CS)C(=O)N[C@@H](Cc1ccccc1)C(=O)N[C@@H](Cc1c[nH]cn1)C(=O)NCC(=O)N[C@H](C(N)=O)[C@@H](C)O)[C@@H](C)O [TGFf-11] (H-G[Pra]GGSHTQFCFHGT-NH2),No binding
3,C#CC[C@H](NC(=O)CN)C(=O)NCC(=O)NCC(=O)N[C@@H](C)C(=O)N[C@@H](CCCNC(=N)N)C(=O)N[C@@H](CS)C(=O)N[C@@H](CCC(=O)O)C(=O)N[C@@H](Cc1c[nH]cn1)C(=O)N[C@@H](C)C(=O)N[C@@H](CC(=O)O)C(=O)N[C@@H](C)C(=O)N[C@@H](CC(=O)O)C(=O)N[C@@H](CC(C)C)C(N)=O [TGFf-5] (H-G[Pra]GGARCEHADADL-NH2),No binding
4,C#CC[C@H](NC(=O)CN)C(=O)NCC(=O)NCC(=O)N[C@@H](Cc1c[nH]c2ccccc12)C(=O)N[C@@H](CO)C(=O)N[C@@H](Cc1c[nH]cn1)C(=O)N[C@@H](Cc1ccccc1)C(=O)N[C@@H](CC(N)=O)C(=O)N[C@@H](CC(=O)O)C(=O)N[C@@H](CS)C(=O)N1CCC[C@H]1C(=O)N[C@@H](CC(=O)O)C(N)=O [TGFf-13] (H-G[Pra]GGWSHFNDCPD-NH2),No binding
5,C#CC[C@H](NC(=O)CN)C(=O)NCC(=O)NCC(=O)N[C@@H](CS)C(=O)N[C@@H](CCCNC(=N)N)C(=O)N[C@@H](Cc1ccccc1)C(=O)N[C@@H](CC(C)C)C(=O)N[C@H](C(=O)N[C@@H](CCC(N)=O)C(=O)N[C@@H](CCC(=O)O)C(=O)N[C@@H](CC(=O)O)C(=O)N[C@@H](CCCCN)C(=O)N1CCC[C@H]1C(N)=O)C(C)C [TGFf-9] (H-G[Pra]GGCRFLVQEDKP-NH2),No binding
6,C#CC[C@H](NC(=O)CN)C(=O)NCC(=O)NCC(=O)N[C@@H](C)C(=O)N[C@@H](CC(=O)O)C(=O)N[C@@H](CC(C)C)C(=O)N[C@@H](CC(C)C)C(=O)N[C@@H](C)C(=O)N[C@H](C(=O)N[C@H](C(=O)N[C@@H](C)C(=O)N[C@@H](C)C(N)=O)C(C)C)C(C)C [TGFf-4] (H-G[Pra]GGADLLAVVAA-NH2),No binding
7,C#CC[C@H](NC(=O)CN)C(=O)NCC(=O)NCC(=O)N[C@@H](C)C(=O)N[C@@H](CCCNC(=N)N)C(=O)N[C@@H](CS)C(=O)N[C@@H](Cc1c[nH]cn1)C(=O)N[C@@H](CCC(=O)O)C(=O)N[C@@H](Cc1c[nH]cn1)C(=O)N[C@@H](C)C(=O)N[C@@H](CC(=O)O)C(=O)N[C@@H](CC(C)C)C(=O)N[C@@H](CC(C)C)C(=O)N[C@@H](C)C(N)=O [TGFf-14] (H-G[Pra]GGARCHEHADLLA-NH2),No binding
8,C#CC[C@H](NC(=O)CN)C(=O)NCC(=O)NCC(=O)N[C@@H](C)C(=O)N[C@@H](CSCNC(C)=O)C(=O)N[C@H](C(=O)N[C@@H](CS)C(=O)N[C@@H](Cc1c[nH]cn1)C(=O)N[C@@H](CO)C(=O)NCC(=O)N[C@@H](Cc1ccc(O)cc1)C(=O)N[C@H](C(=O)NCC(N)=O)C(C)C)C(C)C [TGFf-7] (H-G[Pra]GGAC(Acm)VCHSGYVG-NH2),No binding

# Same assay, conditions: Table 11, P2 Ala scan
row,KD (μM),Compound
1,nb,"P2-8: P2 alanine scan analog, alanine at position 8 (DPCTWEVAGRECLQ; disulfide 3-12 (inferred); not fully specified (N-terminus, C-terminus)) [Peptide P2-8]"
2,nb,"P2-12: P2 alanine scan analog, alanine at position 12 (Ac-DPCTWEVWGREALQ-NH2) [Peptide P2-12]"
3,nb,"P2-3: P2 alanine scan analog, alanine at position 3 (Ac-DPATWEVWGRECLQ-NH2) [Peptide P2-3]"

# Same assay, conditions: Table 11; relative to the KD of parent P2
row,Relative Affinity,Compound
1,nb,"P2-8: P2 alanine scan analog, alanine at position 8 (DPCTWEVAGRECLQ; disulfide 3-12 (inferred); not fully specified (N-terminus, C-terminus)) [Peptide P2-8]"
2,nb,"P2-12: P2 alanine scan analog, alanine at position 12 (Ac-DPCTWEVWGREALQ-NH2) [Peptide P2-12]"
3,nb,"P2-3: P2 alanine scan analog, alanine at position 3 (Ac-DPATWEVWGRECLQ-NH2) [Peptide P2-3]"

# Same assay, conditions: Table 13, point mutations
row,KD/P2 KD,Compound
1,NS at 100 μM,H2N-DPCTWEVFGRECLQ-GG-Par-G-CONH2 [Peptide P2-40]
2,NS at 100 μM,H2N-DPCTWEVWARECLQ-GG-Par-G-CONH2 [Peptide P2-41]

# Same assay, conditions: Table 14; relative affinity compared to KD of parent P2 (FIG. 16)
row,Compound,Result
1,H2N-GDPKTWEVWGREELQ-GG-Par-G-CONH2 (H-GDPKTWEVWGREELQGG[Pra]G-NH2; lactam 4-13; SMILES C#CC[C@H](NC(=O)CNC(=O)CNC(=O)[C@H](CCC(N)=O)NC(=O)[C@H](CC(C)C)NC(=O)[C@@H]1CCC(=O)NCCCC[C@H](NC(=O)[C@@H]2CCCN2C(=O)[C@H](CC(=O)O)NC(=O)CN)C(=O)N[C@@H]([C@@H](C)O)C(=O)N[C@@H](Cc2c[nH]c3ccccc23)C(=O)N[C@@H](CCC(=O)O)C(=O)N[C@@H](C(C)C)C(=O)N[C@@H](Cc2c[nH]c3ccccc23)C(=O)NCC(=O)N[C@@H](CCCNC(=N)N)C(=O)N[C@@H](CCC(=O)O)C(=O)N1)C(=O)NCC(N)=O) [Peptide P2-60],No binding
2,H2N-GDP-Dap-TWEVWGREELQ-GG-Par-G-CONH2 (H-GDP[Dap]TWEVWGREELQGG[Pra]G-NH2; lactam 4-13) [Peptide P2-63],No binding
3,H2N-GDPETWEVWGRE-Dap-LQ-GG-Par-G-CONH2 (H-GDPETWEVWGRE[Dap]LQGG[Pra]G-NH2; lactam 4-13) [Peptide P2-69],No binding

# Results, then the compound that gave them:
row,Result,Compound
1,No binding,H2N-GDPETWEVWGRE-Orn-LQ-GG-Par-G-CONH2 (H-GDPETWEVWGRE[Orn]LQGG[Pra]G-NH2; lactam 4-13; SMILES C#CC[C@H](NC(=O)CNC(=O)CNC(=O)[C@H](CCC(N)=O)NC(=O)[C@H](CC(C)C)NC(=O)[C@@H]1CCCNC(=O)CC[C@H](NC(=O)[C@@H]2CCCN2C(=O)[C@H](CC(=O)O)NC(=O)CN)C(=O)N[C@@H]([C@@H](C)O)C(=O)N[C@@H](Cc2c[nH]c3ccccc23)C(=O)N[C@@H](CCC(=O)O)C(=O)N[C@@H](C(C)C)C(=O)N[C@@H](Cc2c[nH]c3ccccc23)C(=O)NCC(=O)N[C@@H](CCCNC(=N)N)C(=O)N[C@@H](CCC(=O)O)C(=O)N1)C(=O)NCC(N)=O) [Peptide P2-68]
2,No binding,H2N-GDP-Dap-TWEVWGREDLQ-GG-Par-G-CONH2 (H-GDP[Dap]TWEVWGREDLQGG[Pra]G-NH2; lactam 4-13) [Peptide P2-59]
3,No binding,H2N-GDPDTWEVWGRE-Dap-LQ-GG-Par-G-CONH2 (H-GDPDTWEVWGRE[Dap]LQGG[Pra]G-NH2; lactam 4-13) [Peptide P2-66]
4,No binding,H2N-GDP-Orn-TWEVWGREELQ-GG-Par-G-CONH2 (H-GDP[Orn]TWEVWGREELQGG[Pra]G-NH2; lactam 4-13; SMILES C#CC[C@H](NC(=O)CNC(=O)CNC(=O)[C@H](CCC(N)=O)NC(=O)[C@H](CC(C)C)NC(=O)[C@@H]1CCC(=O)NCCC[C@H](NC(=O)[C@@H]2CCCN2C(=O)[C@H](CC(=O)O)NC(=O)CN)C(=O)N[C@@H]([C@@H](C)O)C(=O)N[C@@H](Cc2c[nH]c3ccccc23)C(=O)N[C@@H](CCC(=O)O)C(=O)N[C@@H](C(C)C)C(=O)N[C@@H](Cc2c[nH]c3ccccc23)C(=O)NCC(=O)N[C@@H](CCCNC(=N)N)C(=O)N[C@@H](CCC(=O)O)C(=O)N1)C(=O)NCC(N)=O) [Peptide P2-61]
5,No binding,H2N-GDP-Orn-TWEVWGREDLQ-GG-Par-G-CONH2 (H-GDP[Orn]TWEVWGREDLQGG[Pra]G-NH2; lactam 4-13; SMILES C#CC[C@H](NC(=O)CNC(=O)CNC(=O)[C@H](CCC(N)=O)NC(=O)[C@H](CC(C)C)NC(=O)[C@@H]1CC(=O)NCCC[C@H](NC(=O)[C@@H]2CCCN2C(=O)[C@H](CC(=O)O)NC(=O)CN)C(=O)N[C@@H]([C@@H](C)O)C(=O)N[C@@H](Cc2c[nH]c3ccccc23)C(=O)N[C@@H](CCC(=O)O)C(=O)N[C@@H](C(C)C)C(=O)N[C@@H](Cc2c[nH]c3ccccc23)C(=O)NCC(=O)N[C@@H](CCCNC(=N)N)C(=O)N[C@@H](CCC(=O)O)C(=O)N1)C(=O)NCC(N)=O) [Peptide P2-58]
